Measurements published in PMC12008772, “Transcription Factor SsNdt80b Maintains Optimal Expression of SsSNF1 to Modulate Growth and Pathogenicity in Sclerotinia sclerotiorum”.

Target: T1, SsNdt80b-His (Sclerotinia sclerotiorum, UniProt A0A1D9PYE1 1-599)
T1 sequence: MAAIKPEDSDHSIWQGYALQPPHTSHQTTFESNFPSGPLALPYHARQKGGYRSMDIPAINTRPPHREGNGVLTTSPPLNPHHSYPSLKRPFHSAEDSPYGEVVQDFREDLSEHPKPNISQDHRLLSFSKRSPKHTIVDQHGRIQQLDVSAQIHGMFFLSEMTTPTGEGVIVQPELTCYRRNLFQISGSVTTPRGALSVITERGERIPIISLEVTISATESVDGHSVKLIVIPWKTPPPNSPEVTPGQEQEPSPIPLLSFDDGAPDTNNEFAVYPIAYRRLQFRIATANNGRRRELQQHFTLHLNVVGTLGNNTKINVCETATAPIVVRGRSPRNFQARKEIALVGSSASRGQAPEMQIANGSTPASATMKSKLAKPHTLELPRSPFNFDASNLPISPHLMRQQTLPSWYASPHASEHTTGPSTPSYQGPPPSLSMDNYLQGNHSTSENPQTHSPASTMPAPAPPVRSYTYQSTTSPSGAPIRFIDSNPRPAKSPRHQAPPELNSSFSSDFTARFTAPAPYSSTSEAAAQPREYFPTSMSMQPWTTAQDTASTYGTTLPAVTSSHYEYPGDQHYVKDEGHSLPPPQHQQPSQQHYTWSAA
Test: EMSA; LightShift Chemiluminescence EMSA Kit binding buffer (composition not given); protein 5 min on ice, then probe 30 min at room temperature; 6% native PAGE
Conditions: protein: recombinant; tags: His; label: 5'-biotin on strand 1; printed biotin strand is 39 nt, reverse strand 40 nt: 1 nt 5' overhang (T) on strand 2; unlabelled forward oligo S65 is 40 nt and blunt with S64

B1: P-SsSNF1 biotin probe (dsDNA)
DNA 1: TGAAGAGCAGCTGGAACCACAAATCAACTTTTCCTTTAA
DNA 2: TTTAAAGGAAAAGTTGATTTGTGGTTCCAGCTGCTCTTCA
B1: binds.
